The values that follow come from patent US20160115226A1 (SINGH MOLECULAR MEDICINE, published 2016).

For assay [1], the target named is GST-STAT3 (16 kDa monovalent antigen, Creative BioMart #STAT3-1476H) (UniProt P40763).
Assay [2] has the same target. This is another data set of the same source.
The target is the same in assay [3]. This is another data set of the same source.
For assay [4], the target named is endogenous STAT3 in human cancer cell lysates (MDA-MB-231, PANC-1, DU145) (human, UniProt P40763 2-770).
endogenous STAT3 in human cancer cell lysates (MDA-MB-231, PANC-1, DU145), sequence (P40763 2-770 limits assumed): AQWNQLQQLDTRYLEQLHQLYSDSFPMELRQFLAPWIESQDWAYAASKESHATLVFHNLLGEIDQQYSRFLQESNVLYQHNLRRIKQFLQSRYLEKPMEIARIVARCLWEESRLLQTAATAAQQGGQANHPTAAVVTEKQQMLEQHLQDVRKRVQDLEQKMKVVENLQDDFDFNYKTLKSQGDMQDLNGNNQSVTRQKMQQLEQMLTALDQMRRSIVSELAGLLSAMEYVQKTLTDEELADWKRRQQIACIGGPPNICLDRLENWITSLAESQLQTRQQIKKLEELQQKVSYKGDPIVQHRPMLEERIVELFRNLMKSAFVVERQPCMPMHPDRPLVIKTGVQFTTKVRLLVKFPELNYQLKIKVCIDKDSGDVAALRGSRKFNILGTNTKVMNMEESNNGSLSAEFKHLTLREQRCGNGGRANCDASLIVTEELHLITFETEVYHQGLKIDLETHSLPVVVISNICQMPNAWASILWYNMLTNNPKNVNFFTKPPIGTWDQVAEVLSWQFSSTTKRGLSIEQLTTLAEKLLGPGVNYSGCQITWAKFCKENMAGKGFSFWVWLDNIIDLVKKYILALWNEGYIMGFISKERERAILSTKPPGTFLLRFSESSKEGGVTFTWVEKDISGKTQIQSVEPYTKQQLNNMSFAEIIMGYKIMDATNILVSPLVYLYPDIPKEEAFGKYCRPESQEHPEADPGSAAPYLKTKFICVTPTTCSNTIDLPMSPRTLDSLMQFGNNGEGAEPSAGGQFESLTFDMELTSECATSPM

Read-outs that look alike come from different tables or passages of the source.

What is called Kd is the constant that tells how readily two partners part at equilibrium. A lower Kd goes with tighter binding. For orientation: koff means a measure of how fast the partners let go of each other. Read a high koff as fast dissociation. As usually defined, the kon is the rate constant with which the complex forms. With anti-KRAS (negative control) (VHH), in assay [1], the Kd stood at 4.32 nM, the koff stood at 0.000386 s⁻¹ and the kon was 89300 M⁻¹ s⁻¹. In assay [2], this molecule returned a Kd of 29.2 nM, a koff of 0.00048 s⁻¹ and a kon of 16500 M⁻¹ s⁻¹. In assay [3], this molecule returned a Kd of 67.5 nM, a koff of 0.000801 s⁻¹ and a kon of 11900 M⁻¹ s⁻¹.

B1: STAT3 VHH13 (SEQ ID NO:3) produced and isolated from mammalian cells (VHH)
VHH: HVQLVESGGGSVQAGGSLRLSCAASGANGGRSCMGWFRQVPGKEREGVSGISTGGLITYYADSVKGRFTISQDNTKNTLYLQMNSLKPEDTAMYYCATSRFDCYRGSWFNRYMYNSWGQGTQVTVSS
For the molecule B1, in assay [4], the binding result is recorded as “binds”.
